# Tests used:
# Test in all cases: cell_activity
# [1] = tested on: TaGliadin_T03.1 TALE nuclease pair; conditions: wheat protoplasts; also 0.00 for all treatments in TABLE 7
# [2] = tested on: TaGliadin_T02.1 TALE nuclease pair; conditions: wheat protoplasts; TABLE 7: 0.00 nuclease only, 2.43 with TREX, 5.33 with 5-azacytidine, 0.00 with trichostatin A
# [3] = tested on: TaGliadin_T01.1 TALE nuclease pair; conditions: wheat protoplasts, nuclease only; 0.325% in TABLE 6; 2.40 with TREX, 1.29 with 5-azacytidine, 0.90 with trichostatin A
sequence,measurement,setting,value
TCAGCAACAGCCACAAGAGCAAGTTCCATTGGTGCAACAACAACAATTTCCA (double strand) [TaGliadin_T03.1 target],activity (% mutation frequency),[1],0
TCTCATCCTTGCCCTCCTTGCTATCGTGGCGACCACCGCCACAACTGCA (double strand) [TaGliadin_T02.1 target],activity (% mutation frequency),[2],0.746
TTAGAGTTCCAGTGCCACAATTGCAGCCACAAAATCCATCTCAGCAACA (double strand) [TaGliadin_T01.1 target],activity (% mutation frequency),[3],1.57

# Source: patent US20200002709
